Measured values as given in article PMC3361975 (Biochemistry, 2012).

Molecular target: the molecule itself
Test: SEC

Row | Protein | stoichiometry N | binding result
1 | 17X-PTDH-R301A (phosphite dehydrogenase from Pseudomonas stutzeri WM88, 17X background, Arg301Ala) (enzyme, UniProt O69054 1-336, looked up) MLPKLVITHRVHEEILQLLAPHCELITNQTDSTLTREEILRRCRDAQAMMAFMPDRVDADFLQACPELRVIGCALKGFDNFDVDACTARGVWLTFVPDLLTVPTAELAIGLAVGLGRHLRAADAFVRSGKFRGWQPRFYGTGLDNATVGFLGMGAIGLAMADRLQGWGATLQYHAAKALDTQTEQRLGLRQVACSELFASSDFILLALPLNADTLHLVNAELLALVRPGALLVNPCRGSVVDEAAVLAALERGQLGGYAADVFEMEDWARADRPQQIDPALLAHPNTLFTPHIGSAVRAVALEIERCAAQNILQALAGERPINAVNRLPKANPAAD | 2 | 
2 | 17X-PTDH (thermostable phosphite dehydrogenase mutant TS-PTDH with the additional E175A mutation) (enzyme, Pseudomonas stutzeri WM88, UniProt O69054 1-336, looked up) MLPKLVITHRVHEEILQLLAPHCELITNQTDSTLTREEILRRCRDAQAMMAFMPDRVDADFLQACPELRVIGCALKGFDNFDVDACTARGVWLTFVPDLLTVPTAELAIGLAVGLGRHLRAADAFVRSGKFRGWQPRFYGTGLDNATVGFLGMGAIGLAMADRLQGWGATLQYHAAKALDTQTEQRLGLRQVACSELFASSDFILLALPLNADTLHLVNAELLALVRPGALLVNPCRGSVVDEAAVLAALERGQLGGYAADVFEMEDWARADRPQQIDPALLAHPNTLFTPHIGSAVRAVRLEIERCAAQNILQALAGERPINAVNRLPKANPAAD |  | binds
